The source of these data is patent US9765303B2, “Method for the production of differentiated respiratory epithelial cells” (MEDIZINISCHE HOCHSCHULE HANNOVER, priority 2011, dated 2017).

The test system of this experiment is surfactant protein C (SP-C). The experiment in a line: qRT-PCR of SP-C mRNA in day 24 pluripotent stem cell differentiation cultures. Particulars: KGF alone; start on day 0 of differentiation compared to later supplementation. Format: cell-based, murine. The procedure:
This method is based on our 2008 published differentiation protocol^3. To initiate embryoid body (EB) formation “hanging drops” composed of 6×10^2 cells in 20 μl of differentiation medium were generated (day 0 of differentiation). At day 3 of differentiation, EBs (100 EBs/dish) were transferred to non-adherent petri dishes (Greiner) and cultivated in suspension for two additional days. At day 5 of differentiation, 10 EBs/well were seeded on a 0.1% gelatin-coated 6-well culture dish and cultured until day 24 of differentiation. From day 0 to 7 the basal differentiation medium was composed of Iscove's Modified Dulbecco's Medium (IMDM, Invitrogen), 0.2 mM L-glutamine, 0.1 mM β-mercaptoethanol, 0.1 mM non-essential amino acid stock supplemented with 15% FCS and from day 7 to 24 supplemented with 15% serum replacement (Knockout™ SR, Invitrogen). […]
The differentiation medium was replaced by fresh medium every two to three days. The differentiation was stopped on day 24 and differentiation cultures were analyzed for the presence of lung epithelial cells.
qRT-PCR was used to quantify mRNA expression of typical lung epithelial markers, in particular for bronchial/bronchiolar and alveolar epithelial cells. […]

B1: KGF: recombinant human keratinocyte growth factor (Amgen), also referred to as fibroblast growth factor-7 (protein, UniProt P21781 32-194, looked up)
Fibroblast growth factor 7: CNDMTPEQMATNVNCSSPERHTRSYDYMEGGDIRVRRLFCRTQWYLRIDKRGKVKGTQEMKNNYNIMEIRTVAVGIVAIKGVESEFYLAMNKEGKLYAKKECNEDCNFKELILENHYNTYASAKWTHNGGEMFVALNQKGIPVRGKKTKKEQKTAHFLPMAIT
Consider B1, for which the “SP-C expression by start of KGF supplementation” value was “highest expression”.
